Measured values from patent US9091696B2, “Modulation of NR2F6 and methods and uses thereof” (Regen Biopharma, Inc., priority 2008, dated 2015).

Tests used:
U937 GFP cells = experiment: Cell cycle analysis by propidium iodide DNA content after atRA; assay type: cell-based, human; conditions: control U937 GFP cells; FIG. 3B
Method: Differentiation was induced in the U937 cell line by treatment with 10 nM TPA (Sigma), 1 uM ATRA (Sigma), or 1.25% v/v DMSO (Sigma) respectively. Immunostaining for the maturation marker CD11b (eBioscience) was performed for twenty minutes in the dark according to manufacturer's instructions and cells were analysed by flow cytometry. Nitroblue tetrazolium (NBT) reduction test (Sigma) was performed according to the manufacturer's instructions, with a minimum of 300 cells scored per slide in three different fields of view. Each experimental timepoint was conducted in triplicate.
Overexpression of NR2F6 is able to override the growth arrest associated with differentiation and maturation, in particular maturation and differentiation induced by all-trans retinoic acid (FIG. 3). […] Growth of U937 cells expressing either GFP of NR2F6-IRES-GFP was monitored by counting using trypan blue following treatment of cells with atRA (FIG. 3A). U937 cells expressing either GFP of NR2F6-IRES-GFP were treated with atRA. DNA content was assessed using propidium iodide in order to determine which phase of the cell cycle the cells in each respective population resided in (FIG. 3B).

32Dcl3-NR2F6 cells = experiment: G-CSF induced differentiation of NR2F6 over-expressing cells after HDAC inhibitor pretreatment (cell surface CD11b); assay type: cell-based, mouse; conditions: pretreatment prior to G-CSF; non-treated 32Dcl3-NR2F6 cells failed to differentiate; FIG. 32
Source text: It has been reported that NR2F6 exerts its regulatory effects primarily as a transcriptional repressor (Liu, X., Huang, X., and Sigmund, C. D. (2003). Identification of a nuclear orphan receptor (Ear2) as a negative regulator of renin gene transcription. Circ Res 92, 1033-1040.). The repressor activity of nuclear receptors is mediated by recruitment of corepressors with histone deacetylase (HDAC) activity; we therefore evaluated the importance of this mechanism in the effects of NR2F6 on haematopoiesis and evaluated weather the activity of NR2F6 can be modulated with an HDAC inhibitor. 32Dcl3-NR2F6 cells were incubated with the non-specific histone deacetylase inhibitor sodium butyrate prior to treatment with G-CSF.

[1] = test system: 32Dcl3 mouse hematopoietic cells; experiment: shRNA knock down of NR2F6, differentiation by cytospins and flow cytometry; assay type: cell-based; conditions: vs pSiren universal negative control, FIG. 26
Method: Knock down of NR2F6 using short-hairpin RNAs induces differentiation and maturation of 32Dcl3 mouse hematopoietic cells (FIG. 26).
(§1) Oligonucleotides targeting human or mouse EAR-2 were synthesized (Sigma), annealed and cloned into the pSiren vector (Clontech), after which sequence was verified (The Centre for Applied Genomics, Toronto). Virus was prepared by transient transfection of plasmid in the 293GPG cell line as described above. Knockdown was confirmed by western blot for these vectors in cell lines and by qPCR in bone marrow cells (data not shown and (17)).

bone marrow cells = experiment: Methylcellulose colony formation and replating after silencing of EAR-2 (NR2F6); assay type: cell-based, mouse; conditions: cytokines promoting multilineage or erythroid progenitor differentiation; FIG. 58
Method: We assessed the effects of silencing of EAR-2 expression on colony formation in vitro. […] In replating experiments we observed a significant decrease in secondary colonies in cells in which EAR-2 expression was silenced FIG. 59.
• The 293GPG retroviral packaging cell line (a gift of Richard Mulligan, Harvard University) was grown in DMEM medium supplemented with 10% FBS, tetracycline ([…]), G418 (0.3 mg/mL) and puromycin ([…]). Human EAR-2 cDNA (a kind gift from John Ladias, Harvard University) or Mus EAR-2 cDNA (a kind gift from, Curt D. Sigmund, University of Iowa) was subcloned into the pcDNA3.1V5/HIS vector (Invitrogen). […] Real time PCR was performed according to manufacturer's instructions using SYBR Green Master Mix (Applied Biosystems, Foster City, Calif.) and analyzed using the delta-delta CT method (16). Bone Marrow Transduction • Using the retroviral constructs described above, we forced expression of EAR-2 in primary murine BM cells and monitored the effects on differentiation using colony assays. […] Forty-eight hours after retroviral infection GFP-positive cells were collected by fluorescence activated cell sorting (FACS). […] GFP-positive cells were purified by fluorescence activated cell sorting (FACS) and cultured in methylcellulose medium containing hematopoietic growth factors that favored multilineage differentiation. […]

Murine bone marrow cells = experiment: shRNA knock down of NR2F6 in ex vivo bone marrow suspension culture (flow cytometry, morphology); assay type: cell-based, mouse
Method: Murine bone marrow cells were cultured in conditions that preserved stem cell maintenance (c-kit ligand; thrombopoietin; and Flt3 ligand in OP9 conditioned medium) and transduced with either an shRNA targeting NR2F6 or a scrambled control shRNA. Following seven days in culture cells were analysed by flow cytometry.

[2] = test system: U937 human myelomonocytic leukemia cells; experiment: shRNA knock down of NR2F6, differentiation by cytospins and flow cytometry; assay type: cell-based; conditions: vs pSiren universal negative control, FIG. 27
Method: Knock down of NR2F6 using short-hairpin RNAs induces terminal differentiation, blood cell maturation death of U937 human leukemia cells (FIG. 27).
as §1

CC1=C(/C=C/C(C)=C/C=C/C(C)=C/C(=O)O)C(C)(C)CCC1 [atRA, all-trans retinoic acid]
number of cells in S/G2/M phases of the cell cycle (U937 GFP cells): drastic decrease in the number of cells in S/G2/M phases

CCCC(=O)[O-].[Na+] [sodium butyrate]
G-CSF induced differentiation (cell surface CD11b expression) (32Dcl3-NR2F6 cells): showed recovery of G-CSF induced differentiation

B1: Mus shNR2F6: short-hairpin RNA targeting mouse NR2F6, SEQ ID NO: 5, cloned into the pSiren vector (nucleic acid)
DNA: GATCCGCATTACGGCGTGTTCACCTTCAAGAGAGGTGAACACGCCGTAATGCTTTTTTCTAGAG
myeloid cell differentiation [1]: induces spontaneous myeloid cell differentiation
colony size in methylcellulose (bone marrow cells): increase in the size of colonies
differentiation and maturation of bone marrow cells into neutrophils (Murine bone marrow cells; flow cytometry (FIG. 30) and morphology (FIG. 31)): promoted the differentiation and maturation of bone marrow cells into neutrophils
number of immature cells (devoid of markers of lineage commitment) (Murine bone marrow cells; seven days in culture, vs scrambled shRNA control, flow cytometry, FIG. 28): dramatically reduced the number of immature cells
number of stem cells (ckit+Sca-1+lineage-, KSL cells) (Murine bone marrow cells; seven days in culture, vs scrambled shRNA control, flow cytometry, FIG. 29): dramatically reduced

B2: Human shNR2F6: short-hairpin RNA targeting human NR2F6, SEQ ID NO: 6, cloned into the pSiren vector (nucleic acid)
DNA: GATCCGCATTACGGTGTCTTCACCTTCAAGAGAGGTGAAGACACCGTAATGCTTTTTTCTAGAG
myeloid cell differentiation [2]: induces spontaneous myeloid cell differentiation
